Measured values as given in article PMC13071878 (2026).

Target: human angiotensin-converting enzyme 2, extracellular catalytic domain, produced in mammalian cells … (human, UniProt Q9BYF1 19-615)
Experiment: FACS

Chain of human angiotensin-converting enzyme 2, extracellular catalytic domain, produced in mammalian cells … (Q9BYF1 19-615): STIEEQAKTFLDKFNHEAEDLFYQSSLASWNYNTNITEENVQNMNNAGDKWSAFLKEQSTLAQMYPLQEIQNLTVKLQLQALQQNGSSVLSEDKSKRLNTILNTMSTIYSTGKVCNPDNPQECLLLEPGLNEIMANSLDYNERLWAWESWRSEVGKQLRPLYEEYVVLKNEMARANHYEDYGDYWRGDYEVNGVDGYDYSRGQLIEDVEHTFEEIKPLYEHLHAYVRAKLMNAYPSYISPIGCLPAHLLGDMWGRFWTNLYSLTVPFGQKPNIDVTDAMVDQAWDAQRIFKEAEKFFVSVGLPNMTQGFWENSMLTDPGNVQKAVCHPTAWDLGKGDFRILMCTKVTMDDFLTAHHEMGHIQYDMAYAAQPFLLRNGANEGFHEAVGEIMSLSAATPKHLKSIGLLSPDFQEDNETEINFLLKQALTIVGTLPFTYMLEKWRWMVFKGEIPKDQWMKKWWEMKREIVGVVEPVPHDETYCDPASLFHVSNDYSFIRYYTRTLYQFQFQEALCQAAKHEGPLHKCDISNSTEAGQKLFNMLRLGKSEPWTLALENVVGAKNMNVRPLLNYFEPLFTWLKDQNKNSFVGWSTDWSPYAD

B1: GR1.9 (N8A), yeast-displayed alanine mutant of GR1.4 (peptide)
peptide: ACEPLGYALFLCSG
Kd: > 1000 nM
